The values below come from paper PMC7352787.

Test [1] deals with membrane-bound HLA-G*01:03 on K562 cells (human). The experiment in a line: flow cytometry on cells; 1 x 10^6 K562 cells presenting HLA-G*01:0x incubated with 200 nM purified sNKG2A/CD94 or sNKG2C/CD94 for 2 h at 37 °C; detection by anti-V5-tag antibody and PE-coupled secondary antibody; three technical replicates.
Test [2] concerns the target membrane-bound HLA-G*01:04 on K562 cells (human). The description is as above.

For the substance “recombinant soluble heterodimeric NKG2A/CD94 (from UniProt P26715 1-233; Q13241 1-179) (complex)”, the percent binding (flow cytometry) in test [1] worked out at 17.4%; in test [2], 57.7%.
